As usually defined, the Kd is the concentration at which binding is half-saturated. Higher therefore signals weaker binding.

Experiment [1] has as its system bsSecA783 F652-GS(10)-PhoAss Cys22-IAEDANS. Kind of experiment: Signal peptide competition-binding assay by FRET. Set-up: species or system B. subtilis. The settings on record: 5-fold molar excess of unlabeled SP22; data not shown.
For experiment [2], the system named is bsSecA783 F652-GS(5)-KRRLamBss Cys29-IAEDANS. In words: Signal peptide competition-binding assay by FRET. Set-up: species or system B. subtilis. Conditions: 5-fold molar excess of unlabeled SP22; data not shown.
Experiment [3] deals with E. coli alkaline phosphatase signal peptide SP22, IANBD-labeled (E. coli). In words: fluorescence polarisation.
The test system of experiment [4] is IANBD-labeled SP22. In words: SecA-signal peptide binding affinity by fluorescence anisotropy. Further details: species or system E. coli. On the technique in general: Fluorescence polarisation rises when a labelled molecule tumbles more slowly, as on binding a larger partner.

As for MKQSTIALALLPLLFTPVTKAC-NH2 [SP22], the “reduction of energy transfer efficiency” value in experiment [1] and in experiment [2] was “approximately 50%” each time.
Consider “bsSecA783-KRRLamBss (from UniProt P28366 1-783)”, for which the Kd in experiment [3] is 13 µM. This lies in the double-digit micromolar range.
In turn, “bsSecA783-PhoAss (from UniProt P28366 1-783)” had a Kd in experiment [3] of 4.5 µM.
Regarding “bsSecA841 (from UniProt P28366 1-841) (enzyme)”, the dissociation constant (Kd) in experiment [3] was determined as 1.9 µM.
In experiment [3], “bsSecA841-KRRLamBss (from UniProt P28366 1-841)” gave a dissociation constant Kd of 14 µM.
Turning to “bsSecA841-PhoAss (from UniProt P28366 1-841)”, the dissociation constant (Kd) in experiment [3] was determined as 4.6 µM. This Kd lies about 3-fold lower than the previous one.

B1: bsSecA783: carboxy-terminally truncated B. subtilis SecA lacking the CTL domain (protein, UniProt P28366 1-783, looked up, fragment)
chain: MLGILNKMFDPTKRTLNRYEKIANDIDAIRGDYENLSDDALKHKTIEFKERLEKGATTDDLLVEAFAVVREASRRVTGMFPFKVQLMGGVALHDGNIAEMKTGEGKTLTSTLPVYLNALTGKGVHVVTVNEYLASRDAEQMGKIFEFLGLTVGLNLNSMSKDEKREAYAADITYSTNNELGFDYLRDNMVLYKEQMVQRPLHFAVIDEVDSILIDEARTPLIISGQAAKSTKLYVQANAFVRTLKAEKDYTYDIKTKAVQLTEEGMTKAEKAFGIDNLFDVKHVALNHHINQALKAHVAMQKDVDYVVEDGQVVIVDSFTGRLMKGRRYSEGLHQAIEAKEGLEIQNESMTLATITFQNYFRMYEKLAGMTGTAKTEEEEFRNIYNMQVVTIPTNRPVVRDDRPDLIYRTMEGKFKAVAEDVAQRYMTGQPVLVGTVAVETSELISKLLKNKGIPHQVLNAKNHEREAQIIEEAGQKGAVTIATNMAGRGTDIKLGEGVKELGGLAVVGTERHESRRIDNQLRGRSGRQGDPGITQFYLSMEDELMRRFGAERTMAMLDRFGMDDSTPIQSKMVSRAVESSQKRVEGNNFDSRKQLLQYDDVLRQQREVIYKQRFEVIDSENLREIVENMIKSSLERAIAAYTPREELPEEWKLDGLVDLINTTYLDEGALEKSDIFGKEPDEMLELIMDRIITKYNEKEEQFGKEQMREFEKVIVLRAVDSKWMDHIDAMDQLRQGIHLRAYAQTNPLREYQMEGFAMFEHMIESIEDEVAKFVMKAEIENN
For B1, the “higher affinity for SP22 compared to full-length bsSecA841” value in experiment [4] is “approximately 4 fold”.

The values are drawn from PMC4883009 (Biochemistry, 2016).
